Assay results from US20040132136A1 (ZymoGenetics, published 2004).

Target: the molecule itself
Assay: western blot of BHK conditioned media, reducing against non-reducing conditions
Method: Following selection for stable cell transfectants, media isolated from pools was analyzed by western blot under reducing and non-reducing conditions using a Ztgfβ-9 antibody or an anti-EE epitope tag antibody. […] Under non-reducing conditions, Ztgfβ-9 protein migrated as at 49 kDa species. […] C-terminal EE tagged human Ztgfβ-9 expressed in BHK cells was also anti-EE affinity purified and its N-terminal sequence determined.

B1: Human Ztgfβ-9 protein (ligand)
chain: AGAPRAGRRPARPRGCADRPEELLEQLYGRLAAGVLSAFHHTLQLGPREQARNASCPAGGRPADRRFRPPTNLRSVSPWAYRISYDPARYPRYLPEAYCLCRGCLTGLFGEEDVRFRSAPVYMPTVVLRRTPACAGGRSVYTEAYVTIPVGCTCVPEPEKDADSINSSIDKQGAKLLLGPNDAPAGP
notes: Expressed in BHK cells both with and without a C-terminal Glu-Glu tag; It migrated at 29 kDa reduced and 49 kDa non-reduced, read as a disulfide cross-linked homodimer
B1: binds.
